Experimental data from PMC4928677.

Biological target: GST-Cks2 (Xenopus laevis Cks2α, wild type) (Xenopus laevis) (UniProt Q91879)
Assay: pull-down

Sequence of UniProt Q91879 (Q91879 whole entry): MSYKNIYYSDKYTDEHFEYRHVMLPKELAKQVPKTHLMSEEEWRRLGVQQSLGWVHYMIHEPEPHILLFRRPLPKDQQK

| Substance | EC50 [nM] |
| --- | --- |
| Hyperphosphorylated Wee1A (Flag-Wee1A-WT phosphorylated in vitro by cyclin B1-Cdk1) (from UniProt Q8AYK6 1-571) (natural protein) | 120 |
| Hypophosphorylated Wee1A (Flag-Wee1A-WT incubated with cyclin B1-Cdk1 without ATP) (from UniProt Q8AYK6 1-571) (natural protein) | 526 |
